Assay results from article PMC10344929, “Crosstalk between regulatory elements in disordered TRPV4 N-terminus modulates lipid-dependent channel activity” (Nature Communications, 2023).

Molecular target: T1, Gallus gallus TRPV4 isolated ankyrin repeat domain (residues 135-382) (Gallus gallus, UniProt A0A1D5PXA5 135-382)
T1 construct: TRPV4, Gallus gallus, ankyrin repeat domain, residues 135-382; Made from the NTD vector by Gibson deletion; also called ARD; TRPV4 ARD; source: E. coli BL21-Gold(DE3), purified (Ni-NTA, Ulp-1 cleavage, reverse Ni-NTA, SEC); not shown: His6SUMO, N-terminal, cleaved
T1 sequence (A0A1D5PXA5 135-382): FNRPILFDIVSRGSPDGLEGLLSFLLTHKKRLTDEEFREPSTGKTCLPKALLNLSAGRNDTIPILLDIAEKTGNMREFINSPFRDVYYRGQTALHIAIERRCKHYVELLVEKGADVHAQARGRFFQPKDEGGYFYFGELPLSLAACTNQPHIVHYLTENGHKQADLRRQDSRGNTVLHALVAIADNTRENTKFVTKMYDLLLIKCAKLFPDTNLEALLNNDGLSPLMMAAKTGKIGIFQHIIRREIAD
Experiment: cross-linking; DSS-H12/D12 cross-linking mass spectrometry; isolated IDR and ARD mixed 1:1; 1.5 nmol DSS per ug protein, 2 h at 4 °C, 1 mg/mL protein, 20 mM HEPES pH 7, 300 mM NaCl
Details: both partners purified

B1: Gallus gallus TRPV4 isolated intrinsically disordered region (residues 2-134) (domain or fragment, UniProt A0A1D5PXA5 2-134, looked up)
chain: ADPEDPRDAGDVLGDDSFPLSSLANLFEVEDTPSPAEPSRGPPGAVDGKQNLRMKFHGAFRKGPPKPMELLESTIYESSVVPAPKKAPMDSLFDYGTYRQHPSENKRWRRRVVEKPVAGTKGPAPNPPPILKV
notes: TRPV4, Gallus gallus, N-terminal intrinsically disordered region, residues 2-134; Made from the NTD vector by Gibson deletion; also called IDR; TRPV4 IDR; source: E. coli BL21-Gold(DE3), purified (Ni-NTA, Ulp-1 cleavage, reverse Ni-NTA, SEC); not shown: His6SUMO, N-terminal, cleaved
B1: binds.
